One assay deals with T1, C3G-AAPA (human, UniProt Q13905-1 4-1077, P283A | P284A | L286 | P287 | P289A | P453A | P454A | L456A | P457A | K459A | …).
T1 construct: human C3G isoform a, residues 4-1077; only P3 kept, P1, P2 and P4 mutated to Ala; source: E. coli BL21 (DE3), purified (IMAC, TEV digestion, reversed IMAC, SEC); not shown: His, N-terminal, cleaved; Halo, N-terminal, cleaved
T1 sequence (looked up): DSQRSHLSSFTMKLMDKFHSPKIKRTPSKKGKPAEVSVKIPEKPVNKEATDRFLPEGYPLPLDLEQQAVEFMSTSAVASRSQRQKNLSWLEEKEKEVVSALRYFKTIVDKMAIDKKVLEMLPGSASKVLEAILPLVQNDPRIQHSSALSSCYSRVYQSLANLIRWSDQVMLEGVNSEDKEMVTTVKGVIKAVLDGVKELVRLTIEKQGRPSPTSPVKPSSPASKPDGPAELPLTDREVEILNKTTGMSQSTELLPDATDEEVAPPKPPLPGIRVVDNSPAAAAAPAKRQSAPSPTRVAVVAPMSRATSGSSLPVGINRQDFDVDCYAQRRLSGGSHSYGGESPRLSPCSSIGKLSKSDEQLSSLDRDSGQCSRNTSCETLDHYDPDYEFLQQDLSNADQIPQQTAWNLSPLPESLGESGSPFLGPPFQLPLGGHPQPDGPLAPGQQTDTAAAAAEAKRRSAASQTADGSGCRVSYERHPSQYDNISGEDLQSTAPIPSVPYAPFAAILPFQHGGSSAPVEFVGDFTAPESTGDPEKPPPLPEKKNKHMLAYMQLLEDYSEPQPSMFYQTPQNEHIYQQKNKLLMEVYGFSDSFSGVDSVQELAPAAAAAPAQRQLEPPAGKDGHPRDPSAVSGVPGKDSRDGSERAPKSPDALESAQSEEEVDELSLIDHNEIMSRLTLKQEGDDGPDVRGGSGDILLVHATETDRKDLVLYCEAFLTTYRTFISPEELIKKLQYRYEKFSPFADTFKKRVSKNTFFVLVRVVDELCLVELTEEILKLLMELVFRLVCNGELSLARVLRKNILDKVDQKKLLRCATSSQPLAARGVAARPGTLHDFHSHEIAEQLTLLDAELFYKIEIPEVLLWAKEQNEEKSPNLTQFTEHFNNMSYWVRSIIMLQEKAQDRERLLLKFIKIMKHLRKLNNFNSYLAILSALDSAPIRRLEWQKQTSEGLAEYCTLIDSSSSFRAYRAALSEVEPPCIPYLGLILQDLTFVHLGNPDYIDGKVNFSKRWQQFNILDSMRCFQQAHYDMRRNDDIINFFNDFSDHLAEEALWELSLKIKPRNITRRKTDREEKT
Nature of the assay: ITC; single-PRM mutant of C3G in the cell titrated with CrkL or CrkL-SH3N, 25 °C, 300 mM NaCl, pH 7.5; SEDPHAT, 1:1 heteroassociation model; N is the competent fraction of C3G. The settings on record: both partners purified.

A further assay deals with T2, C3G-PAAA (human, UniProt Q13905-1 4-1077, P453A | P454A | L456A | P457A | K459A | P540A | P541A | L543A | P544A | K546A | …).
T2 construct: human C3G isoform a, residues 4-1077; only P1 kept, P2, P3 and P4 mutated to Ala; source: E. coli BL21 (DE3), purified (IMAC, TEV digestion, reversed IMAC, SEC); not shown: His, N-terminal, cleaved; Halo, N-terminal, cleaved
T2 sequence (looked up): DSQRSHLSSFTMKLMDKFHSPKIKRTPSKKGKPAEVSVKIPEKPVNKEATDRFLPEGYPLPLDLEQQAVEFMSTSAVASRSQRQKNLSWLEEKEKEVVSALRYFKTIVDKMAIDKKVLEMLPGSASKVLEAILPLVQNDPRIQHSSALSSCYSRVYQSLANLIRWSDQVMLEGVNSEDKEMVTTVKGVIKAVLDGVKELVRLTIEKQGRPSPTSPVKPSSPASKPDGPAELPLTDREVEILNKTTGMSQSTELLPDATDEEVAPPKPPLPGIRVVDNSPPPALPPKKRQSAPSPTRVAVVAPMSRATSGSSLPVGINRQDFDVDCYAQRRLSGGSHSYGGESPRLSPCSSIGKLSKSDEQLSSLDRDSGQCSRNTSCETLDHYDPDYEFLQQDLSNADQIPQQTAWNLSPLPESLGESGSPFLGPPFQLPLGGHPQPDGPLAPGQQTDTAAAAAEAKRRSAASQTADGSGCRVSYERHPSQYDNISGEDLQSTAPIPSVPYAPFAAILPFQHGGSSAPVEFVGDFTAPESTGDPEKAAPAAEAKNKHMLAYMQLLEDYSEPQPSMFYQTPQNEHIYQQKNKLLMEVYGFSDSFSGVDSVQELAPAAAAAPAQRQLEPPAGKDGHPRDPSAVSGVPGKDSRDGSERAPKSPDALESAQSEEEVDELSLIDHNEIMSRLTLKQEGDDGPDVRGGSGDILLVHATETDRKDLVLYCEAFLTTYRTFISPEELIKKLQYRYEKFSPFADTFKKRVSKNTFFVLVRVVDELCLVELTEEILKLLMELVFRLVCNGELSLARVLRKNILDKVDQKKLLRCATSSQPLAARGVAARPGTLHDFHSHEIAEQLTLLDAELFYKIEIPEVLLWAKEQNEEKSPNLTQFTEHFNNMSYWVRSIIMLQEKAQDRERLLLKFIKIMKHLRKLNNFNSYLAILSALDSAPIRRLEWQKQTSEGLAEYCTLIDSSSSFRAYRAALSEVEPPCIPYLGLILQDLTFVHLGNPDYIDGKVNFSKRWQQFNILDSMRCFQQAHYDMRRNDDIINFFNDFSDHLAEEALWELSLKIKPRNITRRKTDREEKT
The assay is described as above. To be noted: both partners purified.

B1: CrkL (full-length) (natural protein, human, UniProt P46109 1-303, looked up)
chain: MSSARFDSSDRSAWYMGPVSRQEAQTRLQGQRHGMFLVRDSSTCPGDYVLSVSENSRVSHYIINSLPNRRFKIGDQEFDHLPALLEFYKIHYLDTTTLIEPAPRYPSPPMGSVSAPNLPTAEDNLEYVRTLYDFPGNDAEDLPFKKGEILVIIEKPEEQWWSARNKDGRVGMIPVPYVEKLVRSSPHGKHGNRNSNSYGIPEPAHAYAQPQTTTPLPAVSGSPGAAITPLPSTQNGPVFAKAIQKRVPCAYDKTALALEVGDIVKVTRMNINGQWEGEVNGRKGLFPFTHVKIFDPQNPDENE
notes: human CrkL, residues 1-303, in pETEV15b; also called Crk-like protein; source: E. coli BL21 (DE3), purified (IMAC, TEV digestion, SEC); not shown: His, N-terminal, cleaved
As to B1, the Kd with C3G-AAPA stood at 2100 nM; with C3G-PAAA, 900 nM. Also, in the assay with C3G-PAAA, the “stoichiometry N” value turned out to be 0.86.

(Values after article PMC9896810, “Crk proteins activate the Rap1 guanine nucleotide exchange factor C3G by segregated adaptor-dependent and -independent mechanisms” (Cell Communication and Signaling : CCS, 2023).)
